In the DeepSol protein solubility set:

Assay: soluble on expression in E. coli; label from the status in PepcDB or PDB records

Row | Sequence | soluble on expression in E. coli
1 | MGSDKIHHHHHHMKLICSKANLLKGVNIVSKAVPTRTTMAILECILIDASANEIKLMANDMELGIETIIDGTIEERGIIALDAKIFSEIVRKLPDNDVTIETDASFKTVISCEKAKFNIIGKSGDDFSYIPYVERNESIVLSQFTLKEVIRQTIFSIADNDNNKLMTGELFEIEENKLRVVSLDGHRISIRYIEMKNHYDSKKVVVPGKTLQEISKIIPGSADEDVVIYITNNHIVFEFENTTVVSRLIEGEYFKIDQMLSSDYDTKVRINKRELLDCIDRATLLVKEGDKKPIIMNITDGNMELRINSFIGSMNEDIDIDKDGKDIMIGFNPKFFIDALRVIDEEEVNLYMVNPKAPCFIKDDEGKFIYLILPVNFNTAAN | not soluble
2 | MGSDKIHHHHHHMKLKNDELTVEFKPEGATISSIRDRDGVEYLWQGNPEYWGGQAPVLFPICGSLRNDGATFQVGEKTISGSMPRHGIVRKRTFDLVKHTENEIQFRILSDDEMLKQYPFPFELQLTYRLDGKRLETEYAIRYLGELDAMPFFIGGHPGFNCPLLEDEAFDDYYLEFELEEDCTIPESFPETGLLDFSKRQPMLSKTRILDLNYELFQHDALTFDNLKSRKVALKTKNHQKGLKVSFEDFPFLVVWTTTNKGPFIALEPWSGLSTSLTETDNFIDKTHVTYVEKGEVSRKAFTIEIC | not soluble
3 | MGSDKIHHHHHHMKLKQSESFKMDAFSMRVGDIEGVELDRLHALSLSVGWPHRAEDWQFLRNVGRGVVVLDEIGRVQGSAMWFEHGADFATVGMVITSPRLQTLGAAQWLMKRIFDKVGGRDLRLNATRAARRLYLSLDFLPEKTVYQCQGIARLETTGGPTDLRDVRALDPSDIPAAIALDAAGFGVRRAALVEKLFVHSAGYGLFKHDKLNAFALCRPFGRGHVVGPVVAESDADAVAVVRPHVADNSGSFLRIDTHMANGDFAAFLSHSGMTVFDTVLTMSMGKRLADFAVNGTVAPVTYALASQTLG | not soluble
4 | MGSDKIHHHHHHMKLRSWEFYDRIARAYDSMYETPKWKLYHRLIGSFLEEYLKNPCRVLDLGGGTGKWSLFLQERGFEVVLVDPSKEMLEVAREKGVKNVVEAKAEDLPFPSGAFEAVLALGDVLSYVENKDKAFSEIRRVLVPDGLLIATVDNFYTFLQQMIEKDAWDQITRFLKTQTTSVGTTLFSFNSYAFKPEDLDSLEGFETVDIRGIGVMEYPDERISEREETIFRLEQELSRDRNIIWKADHIFFVLKKKRGA | soluble
5 | MGSDKIHHHHHHMKLWAIYFEPEDWVGFRETRRFSFSDRVESVFPSSFPFYGAVRTALLMKNQKFDPGDVERAGDVRMFGPFVFENTPEGRKHYFPLPRNIYKTDSGYRVTPIVEIDGVYLPWKPEYKMDSKESTSGGLIELSDLELLRSNTQGVCKFDLVSAEKIFKKETHIGVAFEENRKKVKERMIYSISYYRFYDGGFFMFTDDERTVELVSKLDGVFLGMKSKWSAVEVEELNTTAFDPPDYKNVAVALITPAVFDGGGMPKDKTILGKRVLTTAGIRKQVVSGWDLRENKPKKIYHAVSPGAVYYLEGKVNGHVLNESKFTDFGFGRCIFMKYEKL | not soluble
6 | MGSDKIHHHHHHMKMCYNEKRKNMTLRHPGISPTNDSVAKKIFSNPEITWQFIRDMLDLPAKNVTILEGSNIHVLPSLPYSAQDFYTSINVLAELDNGTQVIIEIQVHHQNFFINRLWAYLCSQVNQNLEKIRQREGDTHQSYKHIAPVYAIAIVNSNYFQDDLAFHSFSMREDTTGEALTITNNSQENHLVKMAFLELKKYRETSKDKIRKPWLEFFGNKPFTQQPERAISQAYQLLDYKSWSEEDRKMFSEQRRREEQALLAQDYALEQAEEKGLERGKVEGREEGKLFAFLDMVRQGLLTSEVASQQLGMTVAEFEALL | not soluble
7 | MGSDKIHHHHHHMKMKGIESLKEIFKYGAFSLPVANYLLCEGNIPGDCKRILDVLKLAWKGNFKEAIRRADKAVENSRSETAKYFLLANKLAFLKYTGKTDVNLYRYLKRNLPKMSKSIRDTVIVTLINFEASGIKPLRKVRVWKNDYRKSTLSFLYLSLARREADSGRLSEAVHDYIQAYRLSREVPHPTCIVSSLNDLAWDIREKHPKLAHALSQGAVFWLGYYREEPGNLFGALDTLFVVEKDMDSPSIHSTAHIIVSLPVPEDYLSLLKKAKKFVLDYTGSTYPNTSQLRRYVEKVAWKGKTLSSKGISDILKGKTKMIRADTIRKLLTSGVDTGAPFPVWNEWIKMEIERKYRESSEKLKELPFHQRQILFLTTYMALLDREFLSRKEKLKKAYTLLEDIESFADFMAKDHRTMEFVVSMVKAHPFVEGRKEAVKRALARMKRKRLERFVLRYIEMKESDRKLLDRFLRNYGRYDGVRFGIRLKGPEVVREFAKKYSLKVQPLFAAFWCEEDGRVRRRLERVLKHMVLYNLIEIAILFVMVEK | not soluble
8 | MGSDKIHHHHHHMKNFVTSERSIFEMEKSTEPAIRVKDGSVVKIKTKDHFNGQIHAKQLHYGELDWKQFSPTTGPIYIEEARPGDLLAITIEKIELLGTEVFLLNGPNIGITDDLLTSNSTRCYKVENNQIIYSEDIHIPIRKTIGLLKTEELNPSKVPTKNGGLLDSSKITEGATIFLPVEKYGASLHVGNVRATTGFGKITATSAEAPAEVTLRLQILKNRTAPTPTIIHYHNLICLASDITIEKATQKTMHNMITLLTESDKMTTEDALFLISLQADFQVCKLCKPNITTSIKLPLDYFPEMPFL | not soluble
9 | MGSDKIHHHHHHMKNRDWYTSLVSGLLFPLQERLKDHSTVSVRKALELSQWWNRERLENLQLLKLRHLLAEAEAHVPYYRRIFAEIGFKAAEVSSLADLARLPLLDKPAIRADTEALKSQKARSLRSFNTGGSSGEPLTFYIGRERVSHDVAAKWRATRWWDVDIGDPEMVVWGSPIELGAQDRLRMLRDRLLRTRLFPAFEMSEQKLDRFLGELRAAPPRMFFGYPSALSHIARHAQARGQRMDDLGINVAFVTSERLYDEQRQQISKTFGCPVANGYGGRDAGFIAHECPEGGMHITAEDIIVEIVDRQGVPLPCGEAGEIIVTHLSTAEFPFIRYRTGDIGILDDRICRCGRGLPLLREIQGRSTDFVVAQDGTVMHGLALIYILRELPQISHFKIIQESLNLIHIWVVSGAKLDREITAKIEEEFKARLGQSVEVLIEETTEIPAEKSGKFRYVISKIAGA | not soluble
10 | MGSDKIHHHHHHMKPERILNVPGAVNFRELGGYQTKFNQTIKWQKLLRSGELSHLTPRTQALLADYGLKYDIDLRSPAEASWSSDKIPAQTIYRFYPVYPIQDNEKSDLPQNKHLKYQAYEQSLYDPYLTMAFSEHSRIAFHQMFVDLLANTNEKESLLFHCAAGKDRTGMAGMLILSALQVPYQTIREDYLLTNLVYSNQDPDELRRQITGKHVDKLIQKMNSVFSVTASSLDHTHDLILDRFGSFDHYFKEALEFSDQDLADLRQIYLE | not soluble
11 | MGSDKIHHHHHHMKPNIITVILAAGASSRFHGAKMLAKVKGNQSLLARSIVSLNKVTATAGIKAPAVVLGAHLNDEIMAITATSHQIINPDWQQGLSSSVKHASQYAIEQQADALLLVLADQVAIDVDDYLHLIERYQQNGLTSCAFYRQDVGVPAIFLAKDFAVLMSIDGDKGAKSILKQHDKNNSLNIISMEQAQFDIDTPADLARWLDNKD | not soluble
12 | MGSDKIHHHHHHMKPSGSAICIETAAMTMRFGSFTALDAVSIKVQAGSFHALLGENGAGKSTLVKCIMGFYRQTSGQLLVEDREVEIASPRDAAALGLGMVYQHFTLVPSLTGAENLVISRNAVPAMINWRRERQALNDFMATMPFQIPLERPVRELSAGEKQKLEIIKQLYLGRRFLILDEPTSVLTPAEADDMLGLVRSMTERGALTVLMISHKFHEVRKFADAVSVLRRGKLVGSGRTADLTTQEMAAMMIGDVKLAELDSRLPVVEASPSILSIRGMKTRDRSGLKSIEVDDLKVRAGEIVGIAGISGNGQKELAEVLAGQRPAEAGDITVKDRPYTATRQETRAANVRFIPEEPLLNACAPRMSVAENLSFRDFDVDAKGKTRFWLNAKAMRETAGRLIADFKVKTASPASPIASLSGGNVQRAVLARELTGDVDLLVVSNPCFGLDFSAVAEIRARIMKARNNGSAVLLFSEDLDELMEMSDRIVVMSDGRLVYETPARGADIAVIGAHMAGHA | not soluble
13 | MGSDKIHHHHHHMKRENLHQPFEICFSELDESQLKEHDHTFFELVYILSGTGIQWINNNKFPYHDGHLFMITPGDIHSFDIHTTTKFVYIKFNDIYIHSAVFGAENIQRLEFILQHANHRPGCILRNQTDKLLVKPMIEAIIREYVNRNIYSSEIITQLINTIVIVVARNIAMFLPEQIDENSEEKSLNILQYIQSNICYPEKIKAKAISQHFGISPNYLGRYFKKQTNETMQQYILNYKMKMVESRLLHSEMRISEIVEELGFTDESHLNRLFKKYKDCNPTDFRKKHRGQ | not soluble
